Source: patent publication US20230235013A1 (MABSOLVE, published 2023)
Numbering of substitutions follows the chain as printed. In names and notes the source's numbering stands.

B1: anti-CD20 human IgG1 L234A/G236R (antibody)
heavy: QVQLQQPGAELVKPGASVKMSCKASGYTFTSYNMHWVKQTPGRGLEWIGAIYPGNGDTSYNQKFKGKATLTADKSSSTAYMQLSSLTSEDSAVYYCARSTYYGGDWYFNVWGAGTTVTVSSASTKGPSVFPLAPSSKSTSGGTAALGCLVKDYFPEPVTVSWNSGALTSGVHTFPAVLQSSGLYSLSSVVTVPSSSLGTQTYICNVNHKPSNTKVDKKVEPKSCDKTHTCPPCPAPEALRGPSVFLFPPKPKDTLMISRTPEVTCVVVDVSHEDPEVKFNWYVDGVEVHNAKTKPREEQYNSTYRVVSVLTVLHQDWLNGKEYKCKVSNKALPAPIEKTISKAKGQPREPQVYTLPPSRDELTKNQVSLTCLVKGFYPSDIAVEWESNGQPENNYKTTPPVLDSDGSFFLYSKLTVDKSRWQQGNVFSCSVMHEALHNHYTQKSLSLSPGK
light: QIVLSQSPAILSASPGEKVTMTCRASSSVSYIHWFQQKPGSSPKPWIYATSNLASGVPVRFSGSGSGTSYSLTISRVEAEDAATYYCQQWTSNPPTFGGGTKLEIKRTVAAPSVFIFPPSDEQLKSGTASVVCLLNNFYPREAKVQWKVDNALQSGNSQESVTEQDSKDSTYSLSSTLTLSKADYEKHKVYACEVTHQGLSSPVTKSFNRGEC
notes: also called 1-9
B2: anti-CD20 human IgG1 L234D/L235H/G236R (antibody)
heavy: QVQLQQPGAELVKPGASVKMSCKASGYTFTSYNMHWVKQTPGRGLEWIGAIYPGNGDTSYNQKFKGKATLTADKSSSTAYMQLSSLTSEDSAVYYCARSTYYGGDWYFNVWGAGTTVTVSSASTKGPSVFPLAPSSKSTSGGTAALGCLVKDYFPEPVTVSWNSGALTSGVHTFPAVLQSSGLYSLSSVVTVPSSSLGTQTYICNVNHKPSNTKVDKKVEPKSCDKTHTCPPCPAPEDHRGPSVFLFPPKPKDTLMISRTPEVTCVVVDVSHEDPEVKFNWYVDGVEVHNAKTKPREEQYNSTYRVVSVLTVLHQDWLNGKEYKCKVSNKALPAPIEKTISKAKGQPREPQVYTLPPSRDELTKNQVSLTCLVKGFYPSDIAVEWESNGQPENNYKTTPPVLDSDGSFFLYSKLTVDKSRWQQGNVFSCSVMHEALHNHYTQKSLSLSPGK
light: B1 light
notes: also called 2-6; 1-21
B3: anti-CD20 human IgG1 L234D/L235S/G236R (antibody)
heavy: B2 heavy with H239S
light: B1 light
notes: also called 2-10; 1-29
B4: anti-CD20 human IgG1 L234A/L235A/G236R (antibody)
heavy: not shown
light: B1 light
notes: also called 2-2; 1-2
B5: anti-CD20 human IgG1 L234S/L235V/G236R (antibody)
heavy: B2 heavy with D238S, H239V
light: B1 light
notes: also called 2-53
B6: anti-CD20 human IgG1 L234A/L235T/G236R (antibody)
heavy: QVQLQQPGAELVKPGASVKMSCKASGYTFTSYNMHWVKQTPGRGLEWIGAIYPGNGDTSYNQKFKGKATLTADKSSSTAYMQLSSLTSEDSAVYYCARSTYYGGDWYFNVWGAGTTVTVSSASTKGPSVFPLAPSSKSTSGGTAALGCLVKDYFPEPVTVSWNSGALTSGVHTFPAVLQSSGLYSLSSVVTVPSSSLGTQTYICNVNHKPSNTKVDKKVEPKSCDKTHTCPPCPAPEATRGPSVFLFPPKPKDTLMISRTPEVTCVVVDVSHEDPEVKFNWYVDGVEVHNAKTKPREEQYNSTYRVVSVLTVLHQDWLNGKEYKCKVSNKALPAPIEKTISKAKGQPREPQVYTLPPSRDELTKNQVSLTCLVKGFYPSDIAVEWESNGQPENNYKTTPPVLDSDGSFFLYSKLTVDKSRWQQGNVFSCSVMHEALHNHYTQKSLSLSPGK
light: B1 light
notes: also called 2-5; 1-15
B7: anti-CD20 human IgG1 L234R/G236R (antibody)
heavy: not shown
light: B1 light
notes: also called 2-41
B8: anti-CD20 human IgG1 L234D/L235Q/G236R (antibody)
heavy: B2 heavy with H239Q
light: B1 light
notes: also called 2-9; 1-27
B9: anti-CD20 human IgG1 L234T/L235V/G236R (antibody)
heavy: B2 heavy with D238T, H239V
light: B1 light
notes: also called 2-64
B10: anti-CD20 human IgG1 L235G/G236R (antibody)
heavy: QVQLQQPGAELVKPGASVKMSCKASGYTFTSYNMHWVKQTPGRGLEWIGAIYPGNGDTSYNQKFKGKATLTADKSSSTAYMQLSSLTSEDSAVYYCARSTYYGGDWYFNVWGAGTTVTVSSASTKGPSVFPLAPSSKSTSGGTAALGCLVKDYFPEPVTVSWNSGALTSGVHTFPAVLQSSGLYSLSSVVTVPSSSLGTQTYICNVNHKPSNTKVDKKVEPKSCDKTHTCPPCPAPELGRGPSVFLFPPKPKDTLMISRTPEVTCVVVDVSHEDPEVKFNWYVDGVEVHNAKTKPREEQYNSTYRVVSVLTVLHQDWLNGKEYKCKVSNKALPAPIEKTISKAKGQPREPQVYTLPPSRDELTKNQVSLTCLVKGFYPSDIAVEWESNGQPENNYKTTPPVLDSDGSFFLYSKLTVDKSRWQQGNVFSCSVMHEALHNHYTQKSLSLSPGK
light: B1 light
notes: also called 2-83
B11: anti-CD20 human IgG1 L234D/G236R (antibody)
heavy: not shown
light: B1 light
notes: also called 2-8; 1-24
B12: anti-CD20 human IgG1 L234K/L235Q/G236R (antibody)
heavy: B2 heavy with D238K, H239Q
light: B1 light
notes: also called 2-22; 1-87
B13: anti-CD20 human IgG1 L234R/L235Q/G236R (antibody)
heavy: B2 heavy with D238R, H239Q
light: B1 light
notes: also called 2-42

Each binder was assayed against T1, Histidine-tagged recombinant human FcγRI (CD64) (human, UniProt P12314 16-288, limits assumed) (assay: SPR, His-FcγRI captured; mean;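 note: biacore T200 SPR at 25 °C, anti-His surface capturing FcγRI, Fc-variant antibodies injected at 100 µg/mL for 1 min, signal near injection end minus third buffer blank, three repeats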).
T1 construct: bought

Corrected response (RU), Mean | Binder
70.4 RU | B1
5.2 RU | B2
3.4 RU | B3
4.4 RU | B4
2.4 RU | B5
14.3 RU | B6
5.2 RU | B7
6.2 RU | B8
3.9 RU | B9

Each binder was assayed against T1, Histidine-tagged recombinant human … (assay: SPR, His-FcγRI captured; Expt 2;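 note: biacore T200 SPR at 25 °C, Fc-variant antibodies at 100 µg/mL flowed 1 min over anti-His-captured receptor, signal read near injection end minus third buffer blank; antibody analyte injected at 100 µg/mL for 1 min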).
Description: (§1) Binding analysis was carried out by surface plasmon resonance at 25° C. using a Biacore® T200 instrument with Biacore® T200 control software. The sample compartment was held at 5° C. The running buffer (HBS-EP+) consisted of 0.01 M HEPES pH 7.4, containing 0.15 M NaCl, 3 mM EDTA, and 0.05% v/v Surfactant P20. Methods were run using the manufacturer's standard method wizards as described in the Biacore® T200 Instrument Handbook.
(§2) The cell was activated by treatment with EDC/NHS for 7 min. The antibody was diluted to 10 μg/mL in 10 mM sodium acetate pH 5.0 and injected for 7 min at 5 μL/min. The flow cell was deactivated by injection of 1M ethanolamine for 7 min. This process was repeated in the absence of anti-his antibody on a separate flow cell to generate a reference surface. […] Samples of purified antibodies comprising variant Fc regions (1 mg/mL in PBS) were diluted with running buffer to 100 μg/mL and were injected for 1 min at 30 μL/min and allowed to disassociate for 2 min. Between each cycle, the chip was regenerated by injection of 10 mM glycine pH 3.0 for 0.5 min at a flow rate of 30 μL/min and recharged with a fresh injection of FcγRI. At the beginning of each experiment, three blank cycles were run, with buffer alone being injected instead of test sample. The average SPR signal (relative to the reference cell) was measured in a window approximately 8 to 13 seconds before the injection of test sample (baseline) and approximately 3 to 8 seconds before the end of injection (response). The response of the third of the blank (buffer) samples was subtracted from the response of each test sample in order to allow for any dissociation of the bound FcγRI giving a corrected response for each test sample. The whole experiment was repeated three times with the test samples being analysed in different orders each time.

Corrected response (RU) | Binder
49.3 RU | B1
3.8 RU | B2
2.7 RU | B3
125 RU | B10
77.7 RU | B11
6.1 RU | B12
11.2 RU | B6
3.9 RU | B7
5.9 RU | B8
3.6 RU | B9

These binders were tested against T1, Histidine-tagged recombinant human … (assay: SPR, His-FcγRI captured; Expt 1;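 note: SPR at 25 °C on anti-His antibody chip capturing FcγRI, Fc-variant antibodies injected at 100 µg/mL for 1 min, signal near end of injection minus buffer blank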).
Description: as §1, §2

Corrected response (RU) | Binder
4.3 RU | B2
6.3 RU | B4
135 RU | B11
0.7 RU | B5
-1 RU | B13
14.6 RU | B6
5.7 RU | B8

The binders below were run against T1, Histidine-tagged recombinant human … (assay: SPR, His-FcγRI captured; Expt 3;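 note: biacore T200 SPR at 25 °C, Fc-variant antibodies at 100 µg/mL flowed 1 min over anti-His-captured FcγRI, signal taken just before injection end minus a buffer blank cycle; antibody analyte injected at 100 µg/mL for 1 min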).
Description: as §1, §2

Corrected response (RU) | Binder
74.7 RU | B1
7.7 RU | B2
3.6 RU | B3
5.2 RU | B4
4.3 RU | B5
5.8 RU | B12
7.3 RU | B13
17.3 RU | B6
10.7 RU | B7
7.1 RU | B8
5.4 RU | B9
